{"source": "patent US20230183373A1", "about": "(MINERVA BIOTECHNOLOGIES, published 2023)", "binders": {"B1": {"name": "PSMGFR minus 10 amino acids from the C-terminus (peptide)", "peptide": "GTINVHDVETQFNQYKTEAASRYNLTISDVSVSDV", "notes": "also called C-10; C-10 PSMGFR"}}, "key": {"[1]": {"molecular_target": "T1, PSMGFR minus 10 amino acids from the N-terminus", "T1 construct": "also called N-10; N-10 PSMGFR", "T1 peptide": "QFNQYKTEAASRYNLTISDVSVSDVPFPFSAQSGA", "assay": "selection screens (FIG. 3A-C cited)"}, "[2]": {"molecular_target": "T2, PSMGFR peptide (Primary Sequence of the MUC1 Growth Factor Receptor)", "T2 construct": "Synthetic peptide; also called MUC1* peptide; MUC1* PSMGFR peptide", "T2 peptide": "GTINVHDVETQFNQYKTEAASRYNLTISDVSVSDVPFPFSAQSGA", "assay": "ELISA on immobilised PSMGFR (FIG. 2C)"}, "[3]": {"molecular_target": "T2, PSMGFR peptide (Primary Sequence of the …)", "assay": "ELISA on PSMGFR (FIG. 21A)"}, "[4]": {"molecular_target": "T2, PSMGFR peptide (Primary Sequence of the …)", "assay": "ELISA on immobilised PSMGFR (FIG. 2B)"}, "[5]": {"molecular_target": "B1", "assay": "ELISA on immobilised N-10 and C-10 peptides (FIG. 2E)"}, "[6]": {"molecular_target": "T2, PSMGFR peptide (Primary Sequence of the …)", "assay": "ELISA on immobilised PSMGFR, N-10 and C-10 (FIG. 22A)"}, "NME7-AB": {"molecular_target": "T3, NME7-AB (human, UniProt Q9Y5B8 92-376, limits assumed)", "T3 construct": "also called NM23-H7", "T3 sequence": "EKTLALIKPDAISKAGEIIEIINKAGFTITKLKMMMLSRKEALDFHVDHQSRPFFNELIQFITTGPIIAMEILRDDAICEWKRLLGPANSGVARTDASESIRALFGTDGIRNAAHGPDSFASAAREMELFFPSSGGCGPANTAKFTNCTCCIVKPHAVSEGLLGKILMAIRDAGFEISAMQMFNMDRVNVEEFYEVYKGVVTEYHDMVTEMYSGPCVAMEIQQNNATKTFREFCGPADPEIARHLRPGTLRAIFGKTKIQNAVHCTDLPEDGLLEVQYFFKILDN", "assay": "ELISA on immobilised C-10 peptide (FIG. 2A)"}, "dimeric NME1": {"molecular_target": "T4, dimeric NME1 (human, UniProt P15531 1-152, limits assumed)", "T4 construct": "Used in dimer form; also called NM23-H1 dimers; dimeric NM23-H1", "assay": "ELISA on immobilised C-10 peptide (FIG. 2D)"}, "[7]": {"molecular_target": "T2, PSMGFR peptide (Primary Sequence of the …)", "assay": "ELISA, surface coated with PSMGFR peptide (FIG. 5)"}}, "data": [{"binder": "mouse monoclonal antibody MN-E6 (antibody, V domains shown, Mouse monoclonal IgG; the constant regions are not; also called parent mouse MN-E6 antibody) VH: EVKVVESGGDLVKPGGSLKLSCVVSGFTFSRYGMSWVRQTPGKRLEWVATISGGGTYIYYPDSVKGRFTISRDNAKNTLYLQMSSLKSEDTAMYHCTRDNYGRNYDYGMDYWGQGTSVTVSS VL: QIVLTQSPAIMSASPGEEVTLTCSATSSVSYIHWFQQRPGTSPKLWIYSTSNLASGVPVRFSGSGYGTSYSLTISRMEAEDAATYYCQQRSSSPFTFGSGTKLEIK", "values": [{"measurement": "binding result", "setting": "[1]", "value": "binds"}, {"measurement": "binding result", "setting": "[2]", "value": "binds"}]}, {"binder": "hu MN-E6 scFv-Fc-Y407R-hingeless (Fc fusion, The construct derives from the pSECTag2 E6 scFv-Fc, so it carries the leader and AAQPA before the scFv; also called MN-E6 scFv-Fc with deleted hinge and Y407R) AAQPAEVQLVESGGGLVKPGGSLRLSCAASGFTFSRYGMSWVRQAPGKRLEWVSTISGGGTYIYYPDSVKGRFTISRDNAKNTLYLQMNSLRAEDTAVYYCTRDNYGRNYDYGMDYWGQGTLVTVSSGGGGSGGGGSGGGGSEIVLTQSPATLSLSPGERATLTCSATSSVSYIHWYQQRPGQSPRLLIYSTSNLASGIPARFSGSGSGSDYTLTISSLEPEDFAVYYCQQRSSSPFTFGSGTKVEIKAPELLGGPSVFLFPPKPKDTLMISRTPEVTCVVVDVSHEDPEVKFNWYVDGVEVHNAKTKPREEQYNSTYRVVSVLTVLHQDWLNGKEYKCKVSNKALPAPIEKTISKAKGQPREPQVYTLPPSREEMTKNQVSLTCLVKGFYPSDIAVEWESNGQPENNYKTTPPVLDSDGSFFLRSKLTVDKSRWQQGNVFSCSVMHEALHNHYTQKSLSLSPGK", "values": [{"measurement": "binding result", "setting": "[3]", "value": "binds"}]}, {"binder": "mouse monoclonal antibody MN-C2 (antibody, V domains shown, Mouse monoclonal IgG; the printed entries run a few residues into the constant regions) VH: EVQLEESGGGLVKPGGSLKLSCAASGFTFSGYAMSWVRQTPEKRLEWVATISSGGTYIYYPDSVKGRFTISRDNAKNTLYLQMSSLRSEDTAMYYCARLGGDNYYEYFDVWGAGTTVTVSS VL: DIVITQSTASLGVSLGQRATISCRASKSVSTSGYSYMHWYQQRPGQPPKLLIYLASNLESGVPARFSGSGSGTDFTLNIHPVEEEDAATYYCQHSRELPFTFGGGTKLEIKR", "values": [{"measurement": "binding result", "setting": "[4]", "value": "binds"}, {"measurement": "binding result", "setting": "[1]", "value": "binds"}]}, {"binder": "mouse monoclonal antibody MN-C3 (antibody, V domains shown, Mouse monoclonal IgG) VH: QVQLQQSGPELVRPGVSVKISCKGSGYRFTDYAMNWVKQSHAKSLEWIGVISTFSGNTNFNQKFKGKATMTVDKSSSTAYMELARLTSEDSAMYYCARSDYYGPYFDYWGQGTTLTVSS VL: DVLMTQTPLSLPVSLGDQASISCRSSQTIVHSNGNTYLEWYLQKPGQSPKLLIYKVSNRFSGVPDRFSGSGSGTDFTLKINRVEAEDLGVYYCFQGSHVPFTFGSGTKLEIK", "values": [{"measurement": "binding result", "setting": "[5]", "value": "binds"}, {"measurement": "binding result", "setting": "[6]", "value": "binds"}]}, {"binder": "B1", "values": [{"measurement": "binding result", "setting": "NME7-AB", "value": "no binding"}, {"measurement": "binding result", "setting": "dimeric NME1", "value": "no binding"}]}, {"binder": "humanized MN-C2 scFv (scFv, V domains shown, also called huMN-C2 scFv; hu MN-C2 scFv; not shown: Linker; which one was te; 6xHis tag (detected with Anti-Penta-His)) VH: EVQLVESGGGLVKPGGSLRLSCAASGFTFSGYAMSWVRQAPGKGLEWVSTISSGGTYIYYPDSVKGRFTISRDNAKNSLYLQMNSLRAEDTAVYYCARLGGDNYYEYFDVWGKGTTVTVSS VL: DIVLTQSPASLAVSPGQRATITCRASKSVSTSGYSYMHWYQQKPGQPPKLLIYLASNLESGVPARFSGSGSGTDFTLTINPVEANDTANYYCQHSRELPFTFGGGTKVEIKR", "values": [{"measurement": "EC50", "setting": "[7]", "value": "~333", "unit": "nM"}]}]}
